According to patent US20250333496A1 (Novo Nordisk, published 2025):
Substitutions are numbered along the chain they refer to. Several values for one entry are separate records, joined by “and”; a condition that tells them apart may be missing. Equal entries are not always repeated. One block for each binder: values may come before it.

What was measured:
[1] = target: T1, recombinant human HPC4-tagged IL-6 (human, UniProt P05231 30-212); test: SPR, HPC4-IL-6 captured on anti-HPC4 antibody, VHH injected, 25 C, 1:1 model
T1 construct: captured on an anti-HPC4 antibody in SPR; also called HPC4-human IL6
Method: Binding of purified anti-IL-6 VHHs to recombinant human HPC4-tagged IL-6 (SEQ ID NO: 98) was probed by Surface Plasmon Resonance (SPR).
IL-6 was captured at a flow rate of 10 μL/min for 30 seconds.
Subsequently, concentration series of VHH polypeptides according to Table 33 were injected at a flow rate of 50 μL/min for 200 seconds to allow for binding to […] followed by 600 seconds running buffer (10 mM HEPES, 150 mM NaCl, 5 mM CaCl₂, 0.05% (v/v) Surfactant P20, 1 mg/mL bovine serum albumin, pH 7.4) injection allowing dissociation from IL-6. The running buffer was also used for dilution of anti-IL-6 VHHs and IL-6. Regeneration of the chip was achieved using a regeneration buffer consisting of 50 mM EDTA in running buffer without CaCl₂, 30 seconds contact time, and a 30 μL/min flow rate applied twice to the surface. The binding data were collected at 25° C. at either a Biacore instrument (Cytiva AB, Uppsala) or a Bruker SPR32 (Bruker Daltonics). Data were analysed according to a 1:1 model using either BiaEvaluation or Biacore Insight Evaluation (Cytiva AB, Uppsala) or Bruker Analyser (Bruker Daltonics).

[2] = target: T2, human IL-6 (mature hIL-6) (human, UniProt P05231 30-212); test: cell-based or functional assay
[3] = target: T2, human IL-6 (mature hIL-6); test: SPR (format not stated)
[4] = target: T2, human IL-6 (mature hIL-6); test: cell-based or functional assay; remark: listed apart in the source

T2 sequence (P05231 30-212): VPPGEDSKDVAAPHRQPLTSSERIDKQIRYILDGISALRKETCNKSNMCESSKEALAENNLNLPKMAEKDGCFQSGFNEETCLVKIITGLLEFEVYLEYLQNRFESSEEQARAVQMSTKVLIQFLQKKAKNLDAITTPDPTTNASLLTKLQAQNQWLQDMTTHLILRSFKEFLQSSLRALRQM
T1 sequence (P05231 other isoform, or with tags, fused parts or gaps limits assumed): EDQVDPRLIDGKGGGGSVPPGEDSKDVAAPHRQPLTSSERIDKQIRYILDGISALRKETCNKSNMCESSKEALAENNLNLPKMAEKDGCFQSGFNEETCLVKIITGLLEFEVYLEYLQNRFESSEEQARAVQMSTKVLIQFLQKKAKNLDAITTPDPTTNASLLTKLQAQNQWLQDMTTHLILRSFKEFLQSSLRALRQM

B1: Compound 6 (VHH)
VHH: EVQLVESGGGLVQPGGSLQLSCTTSGRRFSEYAVGWFRQGPGKEREFVADIGEQAENTWYAHSVLGRFTISRDDAKNTVYLQMDSLKPEDTAVYYCAADKYGVGGNAQGYYDSWGQGTQVTVSS
modifications: Chem. 24 (C16 diacid substituent) on Cys in position 4 and on Cys in position 6 of the extension (SEQ ID NO: 72)
notes: Polypeptide derivative; extension E2 at the C-terminus of the VHH; also called VHH_1.3-E2 with 2x Chem. 24
Kd [1]: 0.0161 nM and 0.0214 nM
koff [1]: 7.82e-05 s⁻¹ and 9.95e-05 s⁻¹
kon [1]: 4.94e+06 M⁻¹ s⁻¹ and 4.65e+06 M⁻¹ s⁻¹
IC 50 (nM), reporter gene assay, 0% HSA [2]: 0.018 nM
IC 50 (nM), reporter gene assay, 1% HSA [2]: 0.016 nM

B2: Compound 3 (VHH)
VHH: B1 VHH with E1Q, V2L, L11W, G40A, K43Q, D74E
modifications: Chem. 24 (C16 diacid substituent) on Cys in position 4 and on Cys in position 6 of the extension (SEQ ID NO: 72); found mass includes position 1 Gln to pyroGlu formation
IC 50 (nM), reporter gene assay, 0% HSA [2]: 0.029 nM
IC 50 (nM), reporter gene assay, 1% HSA [2]: 0.029 nM

B6: Compound 5 (VHH)
VHH: B1 VHH with Q19K, H62E
modifications: Chem. 24 (C16 diacid substituent) on Cys in position 4 and on Cys in position 6 of the extension (SEQ ID NO: 72)
notes: Polypeptide derivative; extension E2 at the C-terminus of the VHH; also called VHH_1.2-E2 with 2x Chem. 24
Kd [1]: 0.0159 nM and 0.0214 nM
koff [1]: 7.82e-05 s⁻¹ and 9.95e-05 s⁻¹
kon [1]: 4.94e+06 M⁻¹ s⁻¹ and 4.65e+06 M⁻¹ s⁻¹
IC 50 (nM), reporter gene assay, 0% HSA [2]: 0.019 nM
IC 50 (nM), reporter gene assay, 1% HSA [2]: 0.012 nM

B8: Compound 8 (VHH)
VHH: B1 VHH with R28K, S30D, Q54N, H62E
modifications: Chem. 24 (C16 diacid substituent) on Cys in position 4 and on Cys in position 6 of the extension (SEQ ID NO: 72)
notes: Polypeptide derivative; extension E2 at the C-terminus of the VHH; also called VHH_1.5-E2 with 2x Chem. 24
Kd [1]: 0.0221 nM and 0.0296 nM
koff [1]: 0.000101 s⁻¹ and 0.000123 s⁻¹
kon [1]: 4.58e+06 M⁻¹ s⁻¹ and 4.16e+06 M⁻¹ s⁻¹
IC 50 (nM), reporter gene assay, 0% HSA [2]: 0.02 nM
IC 50 (nM), reporter gene assay, 1% HSA [2]: 0.017 nM

B11: Compound 4 (VHH)
VHH: B1 VHH with L11W, G40A, K43Q, D74E
modifications: Chem. 24 (C16 diacid substituent) on Cys in position 4 and on Cys in position 6 of the extension (SEQ ID NO: 72)
notes: Polypeptide derivative; extension E2 at the C-terminus of the VHH; also called VHH_1.1-E2 with 2x Chem. 24
Kd [1]: 0.0142 nM and 0.0191 nM
koff [1]: 6.98e-05 s⁻¹ and 9.08e-05 s⁻¹
kon [1]: 4.9e+06 M⁻¹ s⁻¹ and 4.75e+06 M⁻¹ s⁻¹
IC 50 (nM), reporter gene assay, 0% HSA [2]: 0.024 nM
IC 50 (nM), reporter gene assay, 1% HSA [2]: 0.015 nM

B12: Compound 9 (VHH)
VHH: B1 VHH with Q19K, G40A, H62E, Q82E, S85G
modifications: Chem. 24 (C16 diacid substituent) on Cys in position 4 and on Cys in position 6 of the extension (SEQ ID NO: 72)
notes: Polypeptide derivative; extension E2 at the C-terminus of the VHH; also called VHH_1.6-E2 with 2x Chem. 24; Chem. 31
Kd [1]: 0.0187 nM and 0.0218 nM and 0.0223 nM
koff [1]: 8.71e-05 s⁻¹ and 0.000105 s⁻¹ and 0.000101 s⁻¹
kon [1]: 4.66e+06 M⁻¹ s⁻¹ and 4.82e+06 M⁻¹ s⁻¹ and 4.53e+06 M⁻¹ s⁻¹
IC 50 (nM), reporter gene assay, 0% HSA [2]: 0.022 nM
IC 50 (nM), reporter gene assay, 1% HSA [2]: 0.014 nM

B13: Compound 7 (VHH)
VHH: B1 VHH with R28K, S30D, G40A, Q54N
modifications: Chem. 24 (C16 diacid substituent) on Cys in position 4 and on Cys in position 6 of the extension (SEQ ID NO: 72)
notes: Polypeptide derivative; extension E2 at the C-terminus of the VHH; also called VHH_1.4-E2 with 2x Chem. 24
Kd [1]: 0.0252 nM and 0.0338 nM
koff [1]: 0.000127 s⁻¹ and 0.000154 s⁻¹
kon [1]: 5.05e+06 M⁻¹ s⁻¹ and 4.56e+06 M⁻¹ s⁻¹
IC 50 (nM), reporter gene assay, 0% HSA [2]: 0.025 nM
IC 50 (nM), reporter gene assay, 1% HSA [2]: 0.019 nM

B15: Compound 2 (VHH)
VHH: EVQLVESGGGLVQAGGSLQLSCTASGGTFSEYAMAWFRQAPGQEREFVTDIGESGGTWYADSVKGRFTISRDNAKNTVYLQMDSLRPEDTAVYYCAADSYGVGGGAERYYDSWGQGTQVTVSS
modifications: Chem. 24 (C16 diacid substituent) on Cys in position 4 and on Cys in position 6 of the extension (SEQ ID NO: 72)
notes: Polypeptide derivative; extension E2 at the C-terminus of the VHH; also called VHH_1.13-E2 with 2x Chem. 24
Kd [1]: 0.0523 nM
koff [1]: 0.000348 s⁻¹
kon [1]: 6.66e+06 M⁻¹ s⁻¹
IC 50 (nM), reporter gene assay, 0% HSA [2]: 0.065 nM
IC 50 (nM), reporter gene assay, 1% HSA [2]: 0.041 nM

B17: Compound 1 (VHH)
VHH: QLQLVESGGGWVQPGGSLQLSCTTSGRTFSSYAVGWFRQAPGQEREFVADIGENADNTWYAHSVKGRFTISRDNAKNTVYLQMDSLKPEDTAVYYCAADSYGVGGGAQGYYDSWGQGTQVTVSS
modifications: Chem. 24 (C16 diacid substituent) on Cys in position 4 and on Cys in position 6 of the extension (SEQ ID NO: 72)
notes: Polypeptide derivative; extension E2 at the C-terminus of the VHH; also called VHH_1.12-E2 with 2x Chem. 24
Kd [1]: 0.0637 nM and 0.0454 nM
koff [1]: 0.000364 s⁻¹ and 0.000371 s⁻¹
kon [1]: 5.67e+06 M⁻¹ s⁻¹ and 8.18e+06 M⁻¹ s⁻¹
IC 50 (nM), reporter gene assay, 0% HSA [2]: 0.029 nM
IC 50 (nM), reporter gene assay, 1% HSA [2]: 0.06 nM

More lines, now with the values ahead:

IC 50 (nM), reporter gene assay, 0% HSA [2]: 0.021 nM
B3: Polypeptide_46 (VHH)
VHH: B1 VHH with E1Q, V2L, L11W, G40A, K43Q, D74E

koff [1]: 0.00014 s⁻¹ and 0.000208 s⁻¹ and 0.000137 s⁻¹
kon [1]: 2.59e+07 M⁻¹ s⁻¹ and 1.05e+07 M⁻¹ s⁻¹ and 2.03e+07 M⁻¹ s⁻¹
IC 50 (nM), reporter gene assay, 0% HSA [2]: 0.017 nM
IC 50 (nM), reporter gene assay, 1% HSA [2]: 0.01 nM
B4: Polypeptide_47 (VHH)
VHH: B1 VHH with E1Q, V2L, L11W, Q19K, G40A, D74E, D84N
notes: VHH_1.15 with C-terminal His tag extension E1; also called [VHH_1.15]-E1

Kd [1]: 0.0175 nM
koff [1]: 0.000154 s⁻¹
kon [1]: 8.82e+06 M⁻¹ s⁻¹
IC 50 (nM), reporter gene assay, 0% HSA [2]: 0.023 nM
B5: Polypeptide_31 (VHH)
VHH: B1 VHH with R28K, S30D, K43Q, Q54N, H62E, Q82E, S85G
notes: VHH_1.7 with C-terminal His tag extension E1; also called [VHH_1.7]-E1

Kd [1]: 0.0191 nM and 0.0208 nM
koff [1]: 0.000108 s⁻¹ and 9.33e-05 s⁻¹
kon [1]: 4.48e+06 M⁻¹ s⁻¹ and 5.68e+06 M⁻¹ s⁻¹
IC 50 (nM), reporter gene assay, 0% HSA [2]: 0.022 nM
IC 50 (nM), reporter gene assay, 1% HSA [2]: 0.016 nM
B7: Compound 10 (VHH)
VHH: B1 VHH with R28K, S30D, K43Q, Q54N, H62E, Q82E, S85G
modifications: Chem. 24 (C16 diacid substituent) on Cys in position 4 and on Cys in position 6 of the extension (SEQ ID NO: 72)
notes: Polypeptide derivative; extension E2 at the C-terminus of the VHH; also called VHH_1.7-E2 with 2x Chem. 24

Kd [1]: 0.00755 nM
koff [1]: 0.000163 s⁻¹
kon [1]: 2.16e+07 M⁻¹ s⁻¹
IC 50 (nM), reporter gene assay, 0% HSA [2]: 0.026 nM
B9: Polypeptide_27 (VHH)
VHH: B1 VHH with R28K, S30D, G40A, Q54N
notes: VHH_1.4 with C-terminal His tag extension E1; also called [VHH_1.4]-E1

Kd [1]: 0.00508 nM
koff [1]: 0.00013 s⁻¹
kon [1]: 2.56e+07 M⁻¹ s⁻¹
IC 50 (nM), reporter gene assay, 0% HSA [2]: 0.027 nM
B10: Polypeptide_28 (VHH)
VHH: B1 VHH with R28K, S30D, Q54N, H62E
notes: VHH_1.5 with C-terminal His tag extension E1; also called [VHH_1.5]-E1

Kd [1]: 0.00321 nM
koff [1]: 0.000132 s⁻¹
kon [1]: 4.12e+07 M⁻¹ s⁻¹
IC 50 (nM), reporter gene assay, 0% HSA [2]: 0.019 nM
B14: Polypeptide_24 (VHH)
VHH: B1 VHH
notes: VHH_1.3 with C-terminal His tag extension E1; also called [VHH_1.3]-E1

Kd [3]: 0.872 nM
Reporter gene-assay [pM] [4]: 39.8 pM
B16: Polypeptide_3 (VHH)
VHH: B17 VHH with L2V, V5Q, W11L, P14A, Q19R, V34M, Q43K, T58R, D84N, S100R
notes: VHH_2.3 with C-terminal His tag extension E1; also called [VHH_2.3]-E1
